Among the data in the Human Domainome abundance scans (Beltran et al. 2025) are abundance fitness values, retold here.

± gives the uncertainty stated by the source.

Sequences and labels used below:
B1: Dynamin-binding protein, residues 242 to 304; numbered along this chain, Q6XZF7 (parent)
chain: EEPGTYGVALYRFQALEPNELDFEVGDKIRILATLEDGWLEGSLKGRTGIFPYRFVKLCPDTR

Variants of B1 are the subject of the data set. The data set can be described thus: abundance fitness (aPCA) (normalised: wild type 0, dead -1); higher = more abundant; growth selection in yeast, the domain comes from the species named. Conditions: Homo sapiens.
For EEPLTYGVALYRFQALEPNELDFEVGDKIRILATLEDGWLEGSLKGRTGIFPYRFVKLCPDTR [G4L], the abundance fitness is -0.05 ± 0.064.

Regarding EEPGTYGVALYRFQALEPNELDFEVGDKIRILATLEDGWLEGSLKGRTGIFPIRFVKLCPDTR [Y53I], the abundance fitness is 0.048 ± 0.055.

EEPGTYGVALYRFQALEPNELDFEVGDKIRILATLEDGWLEGSLKGRTGIFPCRFVKLCPDTR [Y53C]: the abundance fitness stood at 0.203 ± 0.053. Under EEPGTYGVALYRFQALEPTELDFEVGDKIRILATLEDGWLEGSLKGRTGIFPYRFVKLCPDTR [N19T] stands -0.223 ± 0.076. To EEPGTYCVALYRFQALEPNELDFEVGDKIRILATLEDGWLEGSLKGRTGIFPYRFVKLCPDTR [G7C] belongs 0.231 ± 0.045; to EEPGTYNVALYRFQALEPNELDFEVGDKIRILATLEDGWLEGSLKGRTGIFPYRFVKLCPDTR [G7N], -0.719 ± 0.11. To EEPGTYGVALYRFQALEPNELDFEVGDKIRILATLEDGWWEGSLKGRTGIFPYRFVKLCPDTR [L40W] belongs -0.473 ± 0.13. Regarding EEPGTYGVALYRFQALEPNELDFEVGDKIRILATLEDGWKEGSLKGRTGIFPYRFVKLCPDTR [L40K], the abundance fitness is -1.11 ± 0.4.

On to EEPGTYGVALYRFQALEPNELDFEVGDKIRILATLEDGWLEGSLKGRTGIFPYRFVKLCPYTR [D61Y], for which the abundance fitness was -0.391 ± 0.057. To EEPGTYGVALYRFQALEPNELDFEVGDKIRILATLEDGWLEGSLKGRTGIFPYRFVKLCPMTR [D61M] belongs -0.144 ± 0.11; to EEPGTYGVALYRFQALEPNELDFEVGLKIRILATLEDGWLEGSLKGRTGIFPYRFVKLCPDTR [D27L], -0.642 ± 0.092; to EEPGTYGVALNRFQALEPNELDFEVGDKIRILATLEDGWLEGSLKGRTGIFPYRFVKLCPDTR [Y11N], -0.137 ± 0.057. Turning to EEPGTYGVALSRFQALEPNELDFEVGDKIRILATLEDGWLEGSLKGRTGIFPYRFVKLCPDTR [Y11S], the abundance fitness was -0.196 ± 0.045.

In the case of EEPGTYGVALYRFQALEPNELDFEVGDKIRILATLEDGWLEGSLKGRGGIFPYRFVKLCPDTR [T48G], the abundance fitness was -0.685 ± 0.095. Under EEPGTYGVALYRFQALEPNELDFEVGDKIRILATLEDGWLEGSLKGRDGIFPYRFVKLCPDTR [T48D] stands -0.818 ± 0.11; under EEPGTYGVALYRFQALEPNELDFEVGDKIRILATLEDGWLEGSLKGRMGIFPYRFVKLCPDTR [T48M], -0.916 ± 0.27; under EEPGTYGVALYRFQALEPNELDFEVGDKIRILATLEDGWLEGSLKGRNGIFPYRFVKLCPDTR [T48N], -0.453 ± 0.076.

Regarding EEPGTYGVALYRFQALEPNELDFEVGDKIRILATLEDGWLEGSLKGRIGIFPYRFVKLCPDTR [T48I], the abundance fitness was -0.214 ± 0.058.

With EEMGTYGVALYRFQALEPNELDFEVGDKIRILATLEDGWLEGSLKGRTGIFPYRFVKLCPDTR [P3M], the abundance fitness was found to be 0.207 ± 0.15. Under ESPGTYGVALYRFQALEPNELDFEVGDKIRILATLEDGWLEGSLKGRTGIFPYRFVKLCPDTR [E2S] stands -0.567 ± 0.087; under ELPGTYGVALYRFQALEPNELDFEVGDKIRILATLEDGWLEGSLKGRTGIFPYRFVKLCPDTR [E2L], -0.011 ± 0.066; under EEPGTYGVALYRFQALEPNELDFEVGDKIRILATLEFGWLEGSLKGRTGIFPYRFVKLCPDTR [D37F], -0.56 ± 0.086. To EEPGTYGVALYRFQALEPNELDFEVGDKIRILATLEPGWLEGSLKGRTGIFPYRFVKLCPDTR [D37P] belongs -0.476 ± 0.15. For EEPGTYGVALYRFQALEPNELDFEVGDKIRILATLEDGWLEGSLKGRTGIFPYRNVKLCPDTR [F55N], the abundance fitness was -0.399 ± 0.044.

With EEPGTYGVALYRFQALEPNELDFEVGDKIRILATLEDGWLEGSLKGRTGIFPYREVKLCPDTR [F55E], the abundance fitness is -0.67 ± 0.1. For the variant EEPGTYGVALYRFQALEPNELDFEVGDKIRILATLEDGWLEGSLKGRTGIFPYRHVKLCPDTR [F55H], the abundance fitness was -0.189 ± 0.041. To EEPGTYGVALYRFQALEPNELDFEVGDKIRILATLEDGWLEGSLKGRTGIFPYRTVKLCPDTR [F55T] belongs -0.472 ± 0.047; to EEPGTYGVALYRFQALEPNELDFEVGDKIRILATLEDGWLEGSLKGRTGIFPYRLVKLCPDTR [F55L], -0.126 ± 0.034; to EEPGTYGVALYRFQALEPNELDFEVGDKIAILATLEDGWLEGSLKGRTGIFPYRFVKLCPDTR [R30A], -0.155 ± 0.075. To EEPGTYGVALYRFQALEPNELDFEVGDKIRILATLEDGWLEGSLKGRTTIFPYRFVKLCPDTR [G49T] belongs -0.829 ± 0.18; to EEPGTYGVALYRFQALEPNELDFEVGDKIRILATLEDGWLEGSLKGRTYIFPYRFVKLCPDTR [G49Y], -0.805 ± 0.13; to EEPGTYGVALYRFQALEPNELDFEVGDKIRILATLEDGWLEGSLKGRTGIFPYSFVKLCPDTR [R54S], 0.046 ± 0.048.

With EEPGTYGVALYRFQALEPNELDFEVGDKIRILATLEDGWLEGSLKGRTGIFPYNFVKLCPDTR [R54N], the abundance fitness is 0.238 ± 0.063.

On to EEPGTYGVALYRFQALEPNEHDFEVGDKIRILATLEDGWLEGSLKGRTGIFPYRFVKLCPDTR [L21H], for which the abundance fitness is -0.469 ± 0.13. To EEPGTYGVALYRFQALEPNELDFEKGDKIRILATLEDGWLEGSLKGRTGIFPYRFVKLCPDTR [V25K] belongs 0.095 ± 0.14; to EEPGTYGVALYRFQALEPNELDFEVGDKRRILATLEDGWLEGSLKGRTGIFPYRFVKLCPDTR [I29R], -0.649 ± 0.1. Under EEPGTYGVALYRFQALEPNELDFEVGDKARILATLEDGWLEGSLKGRTGIFPYRFVKLCPDTR [I29A] stands -0.702 ± 0.11.

EEPGTYGVALYRFQALEPNELDFEVGDKIRILATLEDGWLEGSLKGRTGRFPYRFVKLCPDTR [I50R]: the abundance fitness is 0.138 ± 0.058. In the case of EEPGTYGVALYRFQALEPNELDFEVGDKIRILATLEDGWLEGSLKGRTGKFPYRFVKLCPDTR [I50K], the abundance fitness is 0.153 ± 0.13. To EEPGTYGVALYRFQALEPNELDFEVGDKIRILATLEDGWLEGSLKGRTGSFPYRFVKLCPDTR [I50S] belongs -0.541 ± 0.066. To EEPGTYGVALYRFQALEFNELDFEVGDKIRILATLEDGWLEGSLKGRTGIFPYRFVKLCPDTR [P18F] belongs -0.659 ± 0.095; to EEPGTYGVALYRFQALESNELDFEVGDKIRILATLEDGWLEGSLKGRTGIFPYRFVKLCPDTR [P18S], -0.113 ± 0.05; to EEPGTYGVALYRFQALEPNELDEEVGDKIRILATLEDGWLEGSLKGRTGIFPYRFVKLCPDTR [F23E], -0.94 ± 0.39.
